Consider one substance from PMC8856988.

Test [1] deals with Skeletal muscle myosin (rabbit) (rabbit). As to the kind of experiment: ELISA; SkM immobilised on microtiter plate; diluted pooled plasma (endogenous FXI) in 30 mM Hepes, pH 7.4, 130 mM NaCl, 2 h, room temperature; bound FXI detected with anti-FXI mAb AHXI-5061, calculated from the curve of purified FXI; apparent.
Test [2] has the same target. As to the kind of experiment: ELISA; SkM (10 μg/ml, sodium bicarbonate pH 9.3) immobilised on microtiter plate, blocked with 0.5% BSA; purified FXI 0–10 nM in 30 mM Hepes, pH 7.4, 130 mM NaCl, 2 h, room temperature; bound FXI detected with anti-FXI mAb AHXI-5061 and HRP-goat antimouse; apparent. (In general: In an ELISA, binding on a coated surface is turned into a signal by an enzyme label.)

The target is the same in test [3]. Description: BLI; SkM immobilised on Octet Red Amine Reactive Second-Generation Biosensor; FXI or PK in solution; 30 mM Hepes, pH 7.4, 0.01% Tween-20, 0.1% PEG, 50 mM NaCl, 30 °C. For orientation: BLI is a label-free optical method that tracks binding on a fibre tip over time.

Chain of Skeletal muscle myosin (rabbit) (rabbit) (Q28641 whole entry, chain 1 of 3): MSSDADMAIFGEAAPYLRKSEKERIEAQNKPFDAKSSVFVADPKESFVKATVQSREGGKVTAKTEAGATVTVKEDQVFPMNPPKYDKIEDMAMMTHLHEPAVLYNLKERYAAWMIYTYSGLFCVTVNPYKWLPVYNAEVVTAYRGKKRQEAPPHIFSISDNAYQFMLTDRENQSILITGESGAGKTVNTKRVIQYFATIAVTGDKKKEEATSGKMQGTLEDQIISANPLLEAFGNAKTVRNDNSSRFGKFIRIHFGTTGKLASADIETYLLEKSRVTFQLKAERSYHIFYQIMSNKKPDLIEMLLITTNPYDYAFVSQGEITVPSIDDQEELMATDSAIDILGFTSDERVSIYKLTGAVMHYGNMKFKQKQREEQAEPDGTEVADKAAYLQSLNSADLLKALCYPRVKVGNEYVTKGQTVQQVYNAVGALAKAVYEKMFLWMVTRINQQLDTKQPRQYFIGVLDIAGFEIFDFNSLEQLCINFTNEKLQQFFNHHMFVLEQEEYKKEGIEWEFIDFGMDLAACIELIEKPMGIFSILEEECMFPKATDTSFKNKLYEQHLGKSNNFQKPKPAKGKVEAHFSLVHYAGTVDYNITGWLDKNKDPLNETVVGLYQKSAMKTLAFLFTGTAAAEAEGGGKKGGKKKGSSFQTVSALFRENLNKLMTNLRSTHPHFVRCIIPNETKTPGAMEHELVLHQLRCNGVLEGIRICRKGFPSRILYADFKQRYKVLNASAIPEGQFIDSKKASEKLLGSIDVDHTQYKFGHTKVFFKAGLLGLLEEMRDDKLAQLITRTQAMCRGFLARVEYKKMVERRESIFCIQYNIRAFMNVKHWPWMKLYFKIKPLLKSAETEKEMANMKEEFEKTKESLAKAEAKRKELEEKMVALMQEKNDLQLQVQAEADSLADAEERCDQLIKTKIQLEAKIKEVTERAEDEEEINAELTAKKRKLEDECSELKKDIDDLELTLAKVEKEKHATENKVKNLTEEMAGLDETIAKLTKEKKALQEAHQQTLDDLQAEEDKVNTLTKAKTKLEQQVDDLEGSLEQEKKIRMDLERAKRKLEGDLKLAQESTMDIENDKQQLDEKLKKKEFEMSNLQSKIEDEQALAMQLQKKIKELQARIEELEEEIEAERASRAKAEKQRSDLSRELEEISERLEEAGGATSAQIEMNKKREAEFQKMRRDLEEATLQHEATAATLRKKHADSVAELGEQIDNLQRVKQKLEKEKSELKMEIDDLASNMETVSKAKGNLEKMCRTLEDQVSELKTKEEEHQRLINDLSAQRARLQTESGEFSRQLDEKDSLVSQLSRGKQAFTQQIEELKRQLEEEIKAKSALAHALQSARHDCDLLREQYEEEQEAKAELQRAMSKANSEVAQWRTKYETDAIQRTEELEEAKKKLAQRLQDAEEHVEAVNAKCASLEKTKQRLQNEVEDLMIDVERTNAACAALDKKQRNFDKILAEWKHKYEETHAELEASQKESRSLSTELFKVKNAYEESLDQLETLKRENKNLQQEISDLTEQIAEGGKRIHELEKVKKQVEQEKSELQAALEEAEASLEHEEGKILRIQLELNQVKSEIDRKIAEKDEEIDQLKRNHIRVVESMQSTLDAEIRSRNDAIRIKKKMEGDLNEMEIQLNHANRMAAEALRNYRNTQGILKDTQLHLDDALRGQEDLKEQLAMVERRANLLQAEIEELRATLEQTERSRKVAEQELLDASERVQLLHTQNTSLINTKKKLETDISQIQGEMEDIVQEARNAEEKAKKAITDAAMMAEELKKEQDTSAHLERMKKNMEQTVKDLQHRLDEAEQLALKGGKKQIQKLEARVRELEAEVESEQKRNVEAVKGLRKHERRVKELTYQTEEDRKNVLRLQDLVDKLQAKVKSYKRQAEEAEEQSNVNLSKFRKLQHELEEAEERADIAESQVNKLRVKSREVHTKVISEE
Chain of Skeletal muscle myosin (rabbit) (rabbit) (P02602 2-192, chain 2 of 3, further chain): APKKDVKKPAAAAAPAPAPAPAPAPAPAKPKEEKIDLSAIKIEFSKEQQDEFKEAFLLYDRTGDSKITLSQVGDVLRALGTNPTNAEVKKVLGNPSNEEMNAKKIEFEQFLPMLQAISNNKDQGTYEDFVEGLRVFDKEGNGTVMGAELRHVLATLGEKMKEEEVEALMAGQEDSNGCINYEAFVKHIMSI
Chain of Skeletal muscle myosin (rabbit) (rabbit) (P02608 2-170, chain 3 of 3, further chain): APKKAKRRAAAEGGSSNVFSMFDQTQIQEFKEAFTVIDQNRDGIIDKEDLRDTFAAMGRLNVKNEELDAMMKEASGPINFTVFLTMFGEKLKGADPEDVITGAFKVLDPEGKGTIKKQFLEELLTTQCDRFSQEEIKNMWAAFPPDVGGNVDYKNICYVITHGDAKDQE

Coagulation factor XI (natural protein): the figures for the Kd in test [1], in test [2] and in test [3] were 0.7 nM, 1.7 nM and 0.2 nM, respectively. In test [3], the off-rate (koff) stood at 0.000795 s⁻¹. The substance further registered a kon in test [3] of 3.87e+06 M⁻¹ s⁻¹.

The koff is the rate constant with which the complex falls apart. Read a high koff as fast dissociation. The kon is a measure of how fast the partners come together.
